Measured values taken from patent CN107042091A.

Columns and labels:
Myc-GST融合蛋白 [1] = assay: ELISA, Myc-GST coated at 5 μg/mL, HRP anti-His second antibody, heat test at 70℃ for 30 min
Myc-GST融合蛋白 [2] = assay: ELISA, Myc-GST coated at 5 μg/mL, HRP anti-His second antibody, heat test at 90℃ for 30 min
Myc-GST融合蛋白 [3] = assay: ELISA, Myc-GST coated at 5 μg/mL, HRP anti-His second antibody, heat test at 80℃ for 30 min

B1: 抗c-Myc标签单域重链抗体 (VHH, not shown: small tags and cut ends)
VHH: QLQLVESGGGEVHPGGSLTLSCEVSGINPAYYAIGWFHQSPGKEREGVACISQGGAKTNYADSVKGRFTISRDSAKNTVYLHMNSLQSEDTGSYYCARRRGAYCTESNSAGDYASWGQGTQVTVST
- OD450 (Myc-GST融合蛋白 [1]): 1.4
- OD450 (Myc-GST融合蛋白 [2]): 1.1
- OD450 (Myc-GST融合蛋白 [3]): 1.3
